The supplement of paper PMC9876800

System: peptide library, one residue held at a place counted from the S/T acceptor
Test: relative phosphorylation of the sub-library (ratio to the mean residue at this position); higher = residue favoured
Summary of the method: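 Each biotinylated degenerate peptide sub-library fixed one residue at one position around a central Ser/Thr and was incubated with a purified recombinant kinase, a human or orthologue construct, in 384-well plates. The 90 min reactions, under kinase-specific conditions, contained 50 μM peptide and 50 μM ATP spiked with γ-32P-ATP. Phosphorylation was read by phosphorimaging spots on streptavidin membranes and quantifying them by densitometry. Relative sub-library phosphorylation expresses each value as a ratio to the mean residue at that position.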

Chain of NIM1K, construct: Full length, human (Q8IY84 whole entry, looked up): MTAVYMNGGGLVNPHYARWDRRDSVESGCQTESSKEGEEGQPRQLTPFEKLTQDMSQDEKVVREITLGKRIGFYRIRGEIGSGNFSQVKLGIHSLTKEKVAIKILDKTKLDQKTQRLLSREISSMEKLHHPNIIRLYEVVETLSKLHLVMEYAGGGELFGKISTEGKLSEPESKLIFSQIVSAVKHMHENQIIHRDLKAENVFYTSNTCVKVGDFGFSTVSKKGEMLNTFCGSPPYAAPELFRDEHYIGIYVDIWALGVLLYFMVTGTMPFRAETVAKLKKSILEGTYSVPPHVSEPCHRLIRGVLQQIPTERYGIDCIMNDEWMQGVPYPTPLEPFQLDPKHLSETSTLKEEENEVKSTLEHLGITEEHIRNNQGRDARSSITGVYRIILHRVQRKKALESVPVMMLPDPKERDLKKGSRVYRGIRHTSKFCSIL
Chain of HUNK, construct: Full length, human (P57058 whole entry, looked up): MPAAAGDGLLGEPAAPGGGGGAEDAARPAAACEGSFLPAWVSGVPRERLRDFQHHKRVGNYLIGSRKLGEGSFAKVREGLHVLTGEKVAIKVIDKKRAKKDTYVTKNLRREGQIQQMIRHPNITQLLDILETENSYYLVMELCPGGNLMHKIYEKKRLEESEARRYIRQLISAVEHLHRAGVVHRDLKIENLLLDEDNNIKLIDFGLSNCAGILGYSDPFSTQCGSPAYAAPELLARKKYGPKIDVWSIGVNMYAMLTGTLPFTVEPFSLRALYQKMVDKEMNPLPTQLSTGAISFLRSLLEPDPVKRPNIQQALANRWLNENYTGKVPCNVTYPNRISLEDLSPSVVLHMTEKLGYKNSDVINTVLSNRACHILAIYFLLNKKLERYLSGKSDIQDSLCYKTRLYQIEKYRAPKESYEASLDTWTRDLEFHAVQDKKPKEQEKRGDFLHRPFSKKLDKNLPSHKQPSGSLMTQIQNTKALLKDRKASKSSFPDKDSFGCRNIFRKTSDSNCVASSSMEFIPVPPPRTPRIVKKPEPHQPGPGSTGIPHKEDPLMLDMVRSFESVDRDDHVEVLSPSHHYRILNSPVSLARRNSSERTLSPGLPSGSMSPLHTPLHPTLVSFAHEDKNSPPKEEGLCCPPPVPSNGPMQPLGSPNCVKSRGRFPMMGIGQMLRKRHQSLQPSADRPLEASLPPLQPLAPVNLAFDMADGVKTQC
Chain of MARK4, construct: Full length, human (Q96L34 whole entry, looked up): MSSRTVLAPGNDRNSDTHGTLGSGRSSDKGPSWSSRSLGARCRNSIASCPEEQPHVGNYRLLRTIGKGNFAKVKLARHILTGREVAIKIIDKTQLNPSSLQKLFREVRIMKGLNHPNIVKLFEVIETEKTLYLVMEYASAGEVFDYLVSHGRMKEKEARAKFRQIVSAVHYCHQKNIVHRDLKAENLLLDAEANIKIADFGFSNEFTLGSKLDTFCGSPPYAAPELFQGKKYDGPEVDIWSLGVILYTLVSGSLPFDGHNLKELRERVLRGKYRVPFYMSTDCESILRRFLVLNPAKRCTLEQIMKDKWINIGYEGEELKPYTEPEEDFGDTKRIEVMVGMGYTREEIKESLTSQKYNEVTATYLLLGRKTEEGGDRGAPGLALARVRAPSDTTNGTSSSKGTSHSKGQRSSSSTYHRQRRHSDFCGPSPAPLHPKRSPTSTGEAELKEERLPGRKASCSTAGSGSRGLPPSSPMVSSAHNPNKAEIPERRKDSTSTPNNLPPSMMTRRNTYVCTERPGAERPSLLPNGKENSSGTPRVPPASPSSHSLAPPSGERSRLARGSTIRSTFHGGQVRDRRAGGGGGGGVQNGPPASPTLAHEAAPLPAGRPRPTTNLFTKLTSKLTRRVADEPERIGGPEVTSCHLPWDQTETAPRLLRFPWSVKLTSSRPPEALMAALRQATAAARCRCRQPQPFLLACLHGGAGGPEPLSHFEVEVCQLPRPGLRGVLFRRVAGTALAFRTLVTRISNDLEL

HUNK, construct: Full length, human (from UniProt P57058)
relative phosphorylation
Conditions	at +1	at +2	at +3	at +4	at -1	at -2	at -3	at -4	at -5
A fixed	1.03	1.5	0.679	0.686	1.56	1.41	1.16	1.13	1.27
D fixed	0.435	0.428	2.19	1.05	0.948	0.95	0.524	0.889	0.9
E fixed	0.527	0.447	1.01	0.957	1.04	0.921	0.728	1.19	0.832
F fixed	1.58	0.842	1.37	1.85	0.461	0.831	0.927	0.798	0.759
G fixed	0.784	0.624	0.66	0.751	1.03	0.896	1.07	1.15	1.37
H fixed	0.814	1.65	1.04	0.811	0.795	1.05	1.97	0.947	1.09
I fixed	0.538	1.44	0.61	1.72	0.555	1	0.798	0.942	0.953
K fixed	0.713	0.591	0.493	0.609	1.38	0.725	0.726	1.02	1.23
L fixed	0.882	0.747	0.704	1.39	0.571	0.867	1.19	1.39	0.947
M fixed	1.81	0.549	0.945	1.71	1.01	0.946	1.3	1.04	0.811
N fixed	0.794	0.829	1.85	0.873	1.11	1.28	0.675	0.993	1.03
P fixed	0.301	0.355	0.287	0.64	1.06	0.395	0.961	0.786	0.917
Q fixed	1.73	0.582	0.661	0.712	1.17	1.3	0.749	0.797	0.725
R fixed	1.01	0.814	0.766	0.758	2.41	1.44	1.35	0.963	1.3
V fixed	0.701	2.16	0.599	0.735	0.576	1.25	0.559	0.833	0.842
W fixed	1.49	1.7	2.1	0.853	0.626	0.916	0.991	1.15	0.943
Y fixed	1.87	1.74	1.03	0.903	0.694	0.806	1.32	0.987	1.08
pThr fixed	1.16	1.58	0.532	0.85	0.689	1.65	0.827	0.821	0.727
pTyr fixed	0.97	1.71	0.92	0.972	0.873	0.669	0.897	0.783	0.806

NIM1K, construct: Full length, human (from UniProt Q8IY84)
relative phosphorylation
Conditions	at +1	at +2	at +3	at +4	at -1	at -2	at -3	at -4	at -5
A fixed	1.02	1.1	0.686	0.823	1.14	1.35	0.839	1.14	1.43
D fixed	0.328	0.286	1.08	0.716	0.362	0.331	0.475	0.831	0.765
E fixed	0.455	0.311	0.495	0.844	0.331	0.307	0.502	0.762	0.602
F fixed	1.17	1.55	1.46	0.97	0.571	1.7	0.769	0.709	0.63
G fixed	0.75	0.407	0.548	0.799	3.74	1.27	0.883	1.33	1.12
H fixed	0.924	0.848	1.15	0.801	0.966	1.15	1.06	1.06	1.26
I fixed	0.801	1.32	0.626	1.37	0.503	0.705	0.681	0.749	0.778
K fixed	0.686	0.545	0.552	1.12	1.37	1.03	1.21	1.57	1.73
L fixed	0.975	1.52	1.15	1.98	0.818	0.932	0.84	0.958	0.869
M fixed	1.83	1.3	0.82	1.31	0.926	0.997	0.966	0.956	0.781
N fixed	0.722	0.496	1.12	0.697	0.842	1.06	0.797	1.25	1.2
P fixed	0.376	0.51	0.404	0.722	0.76	0.361	0.823	0.87	0.852
Q fixed	2.16	0.607	0.549	0.795	1.05	0.737	0.887	0.935	0.868
R fixed	1.05	0.633	0.666	1.24	1.44	1.38	3.47	1.41	1.41
V fixed	1.2	1.48	0.645	1.42	0.693	0.888	0.872	0.712	0.917
W fixed	1.16	2.06	3.85	0.717	0.709	1.7	0.97	0.863	1.04
Y fixed	1.39	2.04	1.19	0.686	0.775	1.1	0.957	0.884	0.758
pThr fixed	0.564	0.357	0.387	0.81	0.341	0.522	0.655	0.711	0.72
pTyr fixed	0.365	0.345	0.367	0.644	0.459	0.475	0.619	0.629	0.543

MARK4, construct: Full length, human (from UniProt Q96L34)
relative phosphorylation
Conditions	at +1	at +2	at +3	at +4	at -1	at -2	at -3	at -4	at -5
A fixed	0.923	1	0.855	0.686	1.2	1.82	0.932	1.32	1.32
D fixed	0.605	0.8	1.94	0.629	0.694	0.498	0.552	0.801	0.875
E fixed	0.864	1.08	0.886	0.529	0.582	0.447	0.522	0.844	0.676
F fixed	0.652	0.854	0.919	0.788	0.472	1.08	0.91	0.875	1.03
G fixed	0.706	0.562	0.687	0.611	2.59	1.62	0.951	1.32	1.15
H fixed	0.956	1.01	1.45	0.652	0.868	1.26	1.25	1.11	0.977
I fixed	0.933	0.829	0.653	2.53	0.464	0.599	0.572	0.61	0.818
K fixed	0.83	0.707	0.627	0.517	1.64	0.884	1.65	1.34	1.33
L fixed	1.11	1.14	0.857	4.02	0.668	0.479	0.692	0.726	1.27
M fixed	1.89	0.973	0.879	1.41	0.756	0.62	0.881	1.04	0.969
N fixed	1.17	1.02	2.69	0.601	0.982	0.718	0.695	0.913	0.753
P fixed	0.372	0.785	0.344	0.587	1.37	0.709	1.08	1.1	0.893
Q fixed	1.74	1.11	0.894	0.576	1.3	0.6	0.751	0.775	0.81
R fixed	1.12	0.826	0.592	0.41	1.36	0.97	2.57	1.34	1.2
V fixed	1.29	0.872	0.634	1.27	0.721	0.682	0.634	0.711	0.972
W fixed	0.9	2.44	0.961	0.58	0.581	2.41	1.42	1.17	1.13
Y fixed	0.94	0.991	1.13	0.6	0.758	1.6	0.938	1	0.819
pThr fixed	0.858	0.855	0.4	0.541	0.428	0.577	0.542	0.786	0.706
pTyr fixed	0.58	0.648	0.716	0.471	0.618	0.611	0.636	0.802	0.681
